From patent US20080248034A1 (MORPHOTEK, published 2008)
Blank lines part the entries; values can stand above or below the binder they belong to.

B3: Fc-TEM1 (soluble recombinant endosialin: full-length TEM1 extracellular domain fused to monomeric murine IgG2b Fc) (Fc fusion, human)
chain: QDPWAAEPRAACGPSSCYALFPRRRTFLEAWRACRELGGDLATPRTPEEAQRVDSLVGAGPASRLLWIGLQRQARQCQLQRPLRGFTWTTGDQDTAFTNWAQPASGGPCPAQRCVALEASGEHRWLEGSCTLAVDGYLCQFGFEGACPALQDEAGQAGPAVYTTPFHLVSTEFEWLPFGSVAAVQCQAGRGASLLCVKQPEGGVGWSRAGPLCLGTGCSPDNGGCEHECVEEVDGHVSCRCTEGFRLAADGRSCEDPCAQAPCEQQCEPGGPQGYSCHCRLGFRPAEDDPHRCVDTDECQIAGVCQQMCVNYVGGFECYCSEGHELEADGISCSPAGAMGAQASQDLGDELLDDGEDEEDEDEAWKAFNGGWTEMPGILWMEPTQPPDFALAYRPSFPEDREPQIPYPEPTWPPPLSAPRVPYHSSVLSVTRPVVVSATHPTLPSAHQPPVIPATHPALSRDHQIPVIAANYPDLPSAYQPGILSVSHSAQPPAHQPPMISTKYPELFPAHQSPMFPDTRVAGTQTTTHLPGIPPNHAPLVTTLGAQLPPQAPDALVLRTQATQLPIIPTAQPSLTTTSRSPVSPAHQISVPAATQPAALPTLLPSQSPTNQTSPISPTHPHSKAPQIPREDGPSPKLALWLPSPAPTAAPTALGEAGLAEHSQRDDRWLDDDD
notes: extracellular domain; Monomeric secreted fusion protein made in CHO cells; also called TEM1-Fcγ; not shown: murine IgG2b Fcγ domain (hinge through CH3), modified: the four cysteine residues responsible for inter-heavy chain disu

What was measured:
[1] = biological target: B3; test: ELISA on coated FN fragments (FIG. 7A)
[2] = biological target: B3; test: antigen-specific ELISA, coated at 0.2 ug/ml (FIG. 4B)
[3] = biological target: T1, 120 kDa fibronectin fragment containing the cell attachment domain (UniProt P02751-1 722-1635, limits assumed); test: ELISA on coated FN fragments (FIG. 7A)
T1 construct: domain: 120 kDa fragment containing the cell attachment domain; Bought fragment; also called the 120 kDa fragment; 120 kDa cell attachment FN-fragment
T1 sequence (P02751 other isoform, or with tags, fused parts or gaps limits assumed): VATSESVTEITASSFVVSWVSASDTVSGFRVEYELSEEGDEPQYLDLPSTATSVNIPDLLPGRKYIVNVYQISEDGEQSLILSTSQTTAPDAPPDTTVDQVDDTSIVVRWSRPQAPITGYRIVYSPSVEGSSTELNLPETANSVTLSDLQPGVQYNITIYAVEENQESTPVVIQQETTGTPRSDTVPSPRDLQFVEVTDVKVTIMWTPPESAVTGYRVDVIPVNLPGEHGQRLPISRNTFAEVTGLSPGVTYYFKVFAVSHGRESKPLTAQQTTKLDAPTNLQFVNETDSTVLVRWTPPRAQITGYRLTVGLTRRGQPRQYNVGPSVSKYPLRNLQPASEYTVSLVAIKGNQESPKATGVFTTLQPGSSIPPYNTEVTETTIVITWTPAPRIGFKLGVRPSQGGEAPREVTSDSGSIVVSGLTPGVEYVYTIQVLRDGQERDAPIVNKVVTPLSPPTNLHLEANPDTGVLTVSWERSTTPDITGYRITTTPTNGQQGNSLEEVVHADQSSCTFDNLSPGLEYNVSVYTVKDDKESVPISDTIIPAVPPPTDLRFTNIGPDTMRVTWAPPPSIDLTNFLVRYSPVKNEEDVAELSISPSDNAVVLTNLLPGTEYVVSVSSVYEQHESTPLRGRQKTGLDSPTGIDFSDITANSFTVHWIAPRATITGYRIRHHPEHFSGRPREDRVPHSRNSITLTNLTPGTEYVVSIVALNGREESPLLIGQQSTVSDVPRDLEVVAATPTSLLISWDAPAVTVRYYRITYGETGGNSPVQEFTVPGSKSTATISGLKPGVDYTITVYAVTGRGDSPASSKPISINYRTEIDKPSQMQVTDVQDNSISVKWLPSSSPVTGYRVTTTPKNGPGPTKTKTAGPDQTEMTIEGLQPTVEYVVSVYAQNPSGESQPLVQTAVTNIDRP

[4] = biological target: B3; test: antigen-specific ELISA, coated at 2 ug/ml (FIG. 4B)
[5] = biological target: T2, murine TEM-1 (in mouse 2H11 cells) (mouse, UniProt Q91V98 18-765); test: Western blot of cell lysates (FIG. 15)
T2 construct: Endogenous protein in lysate of mouse 2H11 cells, on a Western blot; also called murine endosialin
T2 sequence: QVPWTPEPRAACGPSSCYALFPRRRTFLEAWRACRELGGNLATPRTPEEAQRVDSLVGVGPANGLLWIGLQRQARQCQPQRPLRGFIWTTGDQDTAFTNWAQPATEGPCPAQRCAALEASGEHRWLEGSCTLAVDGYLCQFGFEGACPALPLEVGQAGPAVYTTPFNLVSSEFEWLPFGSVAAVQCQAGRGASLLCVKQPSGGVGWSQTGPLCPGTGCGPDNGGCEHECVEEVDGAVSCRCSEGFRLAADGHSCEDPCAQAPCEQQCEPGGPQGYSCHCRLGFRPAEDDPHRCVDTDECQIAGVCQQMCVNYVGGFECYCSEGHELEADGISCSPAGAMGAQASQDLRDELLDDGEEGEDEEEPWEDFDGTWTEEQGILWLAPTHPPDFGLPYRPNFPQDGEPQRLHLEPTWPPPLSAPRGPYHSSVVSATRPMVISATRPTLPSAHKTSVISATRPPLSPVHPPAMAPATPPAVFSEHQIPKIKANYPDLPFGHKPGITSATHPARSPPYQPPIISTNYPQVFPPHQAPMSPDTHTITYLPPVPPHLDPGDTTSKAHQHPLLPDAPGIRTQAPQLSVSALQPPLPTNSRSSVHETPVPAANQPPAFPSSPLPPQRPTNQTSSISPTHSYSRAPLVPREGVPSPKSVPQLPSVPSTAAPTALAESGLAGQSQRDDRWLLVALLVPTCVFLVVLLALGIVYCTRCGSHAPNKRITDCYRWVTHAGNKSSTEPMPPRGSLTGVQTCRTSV

binding result [2]: no binding (tested: 5, 10, 50 ug/ml)
B2: human mesothelin (other, UniProt Q13421 296-598, looked up)
chain: EVEKTACPSGKKAREIDESLIFYKKWELEACVDAALLATQMDRVNAIPFTYEQLDVLKHKLDELYPQGYPESVIQHLGYLFLKMSPEDIRKWNVTSLETLKALLEVNKGHEMSPQVATLIDRFVKGRGQLDKDTLDTLTAFYPGYLCSLSPEELSSVPPSSIWAVRPQDLDTCDPRQLDVLYPKARLAFQNMNGSEYFVKIQSFLGGAPTEDLKALSQQNVSMDLATFMKLRTDAVLPLTVAEVQKLLGPHVEGLKAEERHRPVRDWILRQRQDDLDTLGLGLQGGIPNGYLVLDLSMQEALS

binding result [4]: no binding (tested: 5, 10, 50 ug/ml)
B4: ovalbumin (OVA) (other, UniProt P01012 2-386, looked up)
chain: GSIGAASMEFCFDVFKELKVHHANENIFYCPIAIMSALAMVYLGAKDSTRTQINKVVRFDKLPGFGDSIEAQCGTSVNVHSSLRDILNQITKPNDVYSFSLASRLYAEERYPILPEYLQCVKELYRGGLEPINFQTAADQARELINSWVESQTNGIIRNVLQPSSVDSQTAMVLVNAIVFKGLWEKAFKDEDTQAMPFRVTEQESKPVQMMYQIGLFRVASMASEKMKILELPFASGTMSMLVLLPDEVSGLEQLESIINFEKLTEWTSSNVMEERKIKVYLPRMKMEEKYNLTSVLMAMGITDVFSSSANLSGISSAESLKISQAVHAAHAEINEAGREVVGSAEAGVDAASVSEEFRADHPFLFCIKHIATNAVLFFGRCVSP

binding result [5]: no binding (tested: 3.3 ug/mL)
B5: M4.1 (humanized antibody to human endosialin) (antibody, human IgG1, kappa)
heavy: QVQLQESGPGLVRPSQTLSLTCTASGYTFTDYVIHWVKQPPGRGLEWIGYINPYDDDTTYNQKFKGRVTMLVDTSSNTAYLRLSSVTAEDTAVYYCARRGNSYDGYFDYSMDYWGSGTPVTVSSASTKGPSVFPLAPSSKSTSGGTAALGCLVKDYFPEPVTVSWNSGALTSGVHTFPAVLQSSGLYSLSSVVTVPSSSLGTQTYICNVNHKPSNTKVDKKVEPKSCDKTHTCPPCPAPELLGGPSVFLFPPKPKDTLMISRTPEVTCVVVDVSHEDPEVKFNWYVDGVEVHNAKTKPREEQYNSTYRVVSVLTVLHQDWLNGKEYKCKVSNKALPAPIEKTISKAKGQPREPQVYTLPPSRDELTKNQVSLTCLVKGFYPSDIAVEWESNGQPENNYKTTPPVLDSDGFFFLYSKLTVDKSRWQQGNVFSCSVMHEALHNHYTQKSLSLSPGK
light: DIQMTQSPSSLSASVGDRVTITCRASQNVGTAVAWLQQTPGKAPKLLIYSASNRYTGVPSRFSGSGSGTDYTFTISSLQPEDIATYYCQQYTNYPMYTFGQGTKVQIKRTVAAPSVFIFPPSDEQLKSGTASVVCLLNNFYPREAKVQWKVDNALQSGNSQESVTEQDSKDSTYSLSSTLTLSKADYEKHKVYACEVTHQGLSSPVTKSFNRGEC
notes: also called antibody M4.1

Continued, binder first:

B1: recombinant human fibronectin fragment 4 (Fn4) (other)
chain: VTDATETTITISWRTKTETITGFQVDAVPANGQTPIQRTIKPDVRSYTITGLQPGTDYKIYLYTLNDNARSSPVVIDASTAIDAPSNLRFLATTPNSLLVSWQPPRARITGYIIKYEKPGSPPREVVPRPRPGVTEATITGLEPGTEYTIYVIALKNNQKSEPLIGRKKTDELPQLVTLPHPNLHGPEILDVPSTVQKTPFVTHPGYDTGNGIQLPGTSGQQPSVGQQMIFEEHGFRRTTPPTTATPIRHRPRPYPPNVGEEIQIGHIPREDVDYHLYPHGPGLNPNASTGQEALSQTTISWAPFQDTSEYIISCHPVGTDEEPLQFRVPGTSTSATLTGLTRGATYNIIVEALKDQQRHKVREEVVTVGNSVNEGLNQPTDDSCFDPYTVSHYAVGDEWERMSESGFKLLCQCLGFGSGHFRCDSSRWCHDNGVNYKIGEKWDRQGENGQMMSCTCLGNGKGEFKCDPHEATCYDDGKTYHVGEQWQKEYLGAICSCTCFGGQRGWRCDNCRRPGGEPSPEGTTGQSYNQYSQRYHQRTNTNVNCPIECFMPLDVQADREDSRE
notes: Bought (R&D Systems)
binding result [1]: no binding (tested: 1.25 ug/ml)

Binder: B3
binding result [3]: no binding (tested: 1.25 ug/ml)

B6: recombinant human fibronectin fragment 2 (Fn2) (other)
chain: SSSGPVEVFITETPSQPNSHPIQWNAPQPSHISKYILRWRPKNSVGRWKEATIPGHLNSYTIKGLKPGVVYEGQLISIQQYGHQEVTRFDFTTTSTSTPVTSNTVTGETTPFSPLVATSESVTEITASSFVVSWVSASDTVSGFRVEYELSEEGDEPQYLDLPSTATSVNIPDLLPGRKYIVNVYQISEDGEQSLILSTSQTTAPDAPPDPTVDQVDDTSIVVRWSRPQAPITGYRIVYSPSVEGSSTELNLPETANSVTLSDLQPGVQYNITIYAVEENQESTPVVIQQETTGTPRSDTVPSPRDLQFVEVTDVKVTIMWTPPESAVTGYRVDVIPVNLPGEHGQRLPISRNTFAEVTGLSPGVTYYFKVFAVSHGRESKPLTAQQTTKLDAPTNLQFVNETDSTVLVRWTPPRAQITGYRLTVGLTRRGQPRQYNVGPSVSKYPLRNLQPASEYTVSLVAIKGNQESPKATGVFTTLQPGSSIPPYNTEVTETTIVITWTPAPRIGFKLGVRPSQGGEAPREVTSDSGSIVVSGLTPGVEYVYTIQVLRDGQERDAPIVNKVVTPLSPPTNLHLEANPDTGVLTVSWERSTTPDITGYRITTTPTNGQQGNSLEEVVHADQSSCTFDNLSPGLEYNVSVYTVKDDKESVPISDTIIP
notes: Bought (R&D Systems)
binding result [1]: no binding (tested: 1.25 ug/ml)
